# Laboratory results from publication PMC12990809.
# Legend:
# Assay in all cases: pulldown
# [1] = biological target: T1, DDB_G0286331 (Dictyostelium discoideum) (UniProt Q54M41); settings: 20 nM protein, 1.5 uM RNA pool; 20 mM HEPES pH 7.8, 70 mM KCl, 10 mM NaCl, 10% glycerol, 2 mM DTT, 0.1 ug/uL BSA; 30 min, 4 C
# T1 sequence: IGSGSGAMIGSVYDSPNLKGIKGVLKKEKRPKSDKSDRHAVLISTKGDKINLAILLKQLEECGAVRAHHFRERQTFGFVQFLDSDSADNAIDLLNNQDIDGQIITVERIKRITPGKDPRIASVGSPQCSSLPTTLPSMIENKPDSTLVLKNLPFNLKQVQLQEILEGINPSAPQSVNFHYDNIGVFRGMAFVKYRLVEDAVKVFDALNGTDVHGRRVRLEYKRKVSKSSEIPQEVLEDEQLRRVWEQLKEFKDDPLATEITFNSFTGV
# [2] = biological target: T2, PK14112.1 (Cannabis sativa) (UniProt A0A7J6DPE0); settings: 20 nM protein, 1.5 uM RNA pool; 20 mM HEPES pH 7.8, 70 mM KCl, 10 mM NaCl, 10% glycerol, 2 mM DTT, 0.1 ug/uL BSA; 30 min, 4 C
# T2 sequence: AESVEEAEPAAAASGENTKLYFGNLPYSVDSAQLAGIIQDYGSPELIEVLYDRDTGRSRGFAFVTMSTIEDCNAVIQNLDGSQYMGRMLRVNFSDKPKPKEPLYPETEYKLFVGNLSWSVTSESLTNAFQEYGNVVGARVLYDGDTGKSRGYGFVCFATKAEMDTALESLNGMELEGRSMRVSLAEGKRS
# [3] = biological target: T3, PK26404.1 L183S (Cannabis sativa) (UniProt A0A7J6ELY7); settings: 20 nM protein, 1.5 uM RNA pool; 20 mM HEPES pH 7.8, 70 mM KCl, 10 mM NaCl, 10% glycerol, 2 mM DTT, 0.1 ug/uL BSA; 30 min, 4 C
# T3 sequence: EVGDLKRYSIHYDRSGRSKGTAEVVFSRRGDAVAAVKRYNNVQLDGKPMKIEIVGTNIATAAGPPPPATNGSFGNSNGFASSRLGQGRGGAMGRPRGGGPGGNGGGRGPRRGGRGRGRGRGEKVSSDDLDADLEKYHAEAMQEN
# MBNL2 (Homo sapiens) = biological target: T4, MBNL2 (Homo sapiens) (UniProt Q5VZF2); settings: 20 nM protein, 1.5 uM RNA pool; 20 mM HEPES pH 7.8, 70 mM KCl, 10 mM NaCl, 10% glycerol, 2 mM DTT, 0.1 ug/uL BSA; 30 min, 4 C
# T4 sequence: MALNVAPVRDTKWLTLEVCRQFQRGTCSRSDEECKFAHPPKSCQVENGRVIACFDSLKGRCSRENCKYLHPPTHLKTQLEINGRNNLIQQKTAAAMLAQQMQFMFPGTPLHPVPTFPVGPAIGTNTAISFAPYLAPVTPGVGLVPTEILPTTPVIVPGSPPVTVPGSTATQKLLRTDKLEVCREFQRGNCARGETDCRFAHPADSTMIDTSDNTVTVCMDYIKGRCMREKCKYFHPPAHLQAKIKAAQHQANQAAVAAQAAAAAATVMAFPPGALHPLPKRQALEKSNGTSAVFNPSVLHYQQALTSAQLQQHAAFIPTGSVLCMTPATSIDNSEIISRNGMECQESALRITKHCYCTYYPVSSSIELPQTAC
# [4] = biological target: T5, rsp-2 (Caenorhabditis elegans) (UniProt Q23120); settings: 20 nM protein, 1.5 uM RNA pool; 20 mM HEPES pH 7.8, 70 mM KCl, 10 mM NaCl, 10% glycerol, 2 mM DTT, 0.1 ug/uL BSA; 30 min, 4 C
# T5 sequence: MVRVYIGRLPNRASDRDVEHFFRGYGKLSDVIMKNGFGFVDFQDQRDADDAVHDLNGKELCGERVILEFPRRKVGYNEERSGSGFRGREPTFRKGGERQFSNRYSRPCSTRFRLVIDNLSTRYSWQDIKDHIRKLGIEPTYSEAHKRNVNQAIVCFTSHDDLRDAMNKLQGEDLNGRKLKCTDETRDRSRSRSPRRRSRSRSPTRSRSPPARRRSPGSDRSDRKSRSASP
# HNRNPA1L2 (Homo sapiens) = HNRNPA1L2 (Homo sapiens) (UniProt Q32P51); settings: 20 nM protein, 1.5 uM RNA pool; 20 mM HEPES pH 7.8, 70 mM KCl, 10 mM NaCl, 10% glycerol, 2 mM DTT, 0.1 ug/uL BSA; 30 min, 4 C (protocol of this paper; not …); cited from earlier work
# Sequence of HNRNPA1L2 (Homo sapiens) (Q32P51 1-226): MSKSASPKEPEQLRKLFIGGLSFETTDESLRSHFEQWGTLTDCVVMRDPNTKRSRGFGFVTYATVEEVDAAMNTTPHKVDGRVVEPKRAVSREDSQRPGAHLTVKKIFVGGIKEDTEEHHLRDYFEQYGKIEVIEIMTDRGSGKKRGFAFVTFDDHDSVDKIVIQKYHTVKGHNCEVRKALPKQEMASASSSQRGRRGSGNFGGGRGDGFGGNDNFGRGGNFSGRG
# HNRNPA2B1 (Homo sapiens) = HNRNPA2B1 (Homo sapiens) (UniProt P22626); settings: 20 nM protein, 1.5 uM RNA pool; 20 mM HEPES pH 7.8, 70 mM KCl, 10 mM NaCl, 10% glycerol, 2 mM DTT, 0.1 ug/uL BSA; 30 min, 4 C (protocol of this paper; not …); cited from earlier work
# Sequence of HNRNPA2B1 (Homo sapiens) (P22626 1-233): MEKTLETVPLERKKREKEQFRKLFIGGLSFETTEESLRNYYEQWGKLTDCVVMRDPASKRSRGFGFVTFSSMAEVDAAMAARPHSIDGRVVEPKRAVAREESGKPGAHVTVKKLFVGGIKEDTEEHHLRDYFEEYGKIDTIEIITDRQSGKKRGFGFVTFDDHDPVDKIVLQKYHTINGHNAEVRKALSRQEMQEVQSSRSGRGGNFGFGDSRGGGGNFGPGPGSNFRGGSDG
# [5] = biological target: T6, Smp_032060 (Schistosoma mansoni) (UniProt G4LYM0); settings: 20 nM protein, 1.5 uM RNA pool; 20 mM HEPES pH 7.8, 70 mM KCl, 10 mM NaCl, 10% glycerol, 2 mM DTT, 0.1 ug/uL BSA; 30 min, 4 C
# T6 sequence: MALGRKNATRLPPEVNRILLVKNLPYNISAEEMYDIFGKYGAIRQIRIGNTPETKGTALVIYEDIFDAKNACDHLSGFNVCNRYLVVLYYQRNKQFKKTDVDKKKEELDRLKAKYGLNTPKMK
# [6] = biological target: T7, DDB_G0270634 (Dictyostelium discoideum) (UniProt Q55D63); settings: 20 nM protein, 1.5 uM RNA pool; 20 mM HEPES pH 7.8, 70 mM KCl, 10 mM NaCl, 10% glycerol, 2 mM DTT, 0.1 ug/uL BSA; 30 min, 4 C
# T7 sequence: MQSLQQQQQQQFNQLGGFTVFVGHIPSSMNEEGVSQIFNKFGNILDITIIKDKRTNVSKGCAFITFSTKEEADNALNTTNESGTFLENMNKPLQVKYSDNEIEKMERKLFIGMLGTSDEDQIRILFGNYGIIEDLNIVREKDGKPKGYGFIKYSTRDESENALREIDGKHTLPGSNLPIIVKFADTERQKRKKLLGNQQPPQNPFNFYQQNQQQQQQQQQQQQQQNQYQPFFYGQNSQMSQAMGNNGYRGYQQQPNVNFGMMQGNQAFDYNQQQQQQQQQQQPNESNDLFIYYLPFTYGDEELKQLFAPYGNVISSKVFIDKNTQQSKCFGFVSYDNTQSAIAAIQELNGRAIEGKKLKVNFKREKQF
# [7] = biological target: T8, PK15181.1 (Cannabis sativa) (UniProt A0A7J6E558); settings: 20 nM protein, 1.5 uM RNA pool; 20 mM HEPES pH 7.8, 70 mM KCl, 10 mM NaCl, 10% glycerol, 2 mM DTT, 0.1 ug/uL BSA; 30 min, 4 C
# T8 sequence: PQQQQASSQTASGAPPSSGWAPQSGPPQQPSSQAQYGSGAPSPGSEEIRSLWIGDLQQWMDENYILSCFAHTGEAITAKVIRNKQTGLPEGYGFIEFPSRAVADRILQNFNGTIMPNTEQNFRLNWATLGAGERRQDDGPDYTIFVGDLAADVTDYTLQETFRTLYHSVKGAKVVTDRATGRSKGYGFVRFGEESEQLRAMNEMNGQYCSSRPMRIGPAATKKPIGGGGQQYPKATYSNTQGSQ
substance,measurement,setting,value
AUAAAC [RNAcompete motif RNCMPT00351],binding signal (z-score (mean of top ten 7-mers)),[1],8.36
GAUACUG [RNAcompete motif RNCMPT00392],binding signal (z-score (mean of top ten 7-mers)),[2],8.21
GCGCGC [RNAcompete motif RNCMPT00364],binding signal (z-score (mean of top ten 7-mers)),[3],6.8
GCUUGC [RNAcompete motif RNCMPT00401],binding signal (z-score (mean of top ten 7-mers)),MBNL2 (Homo sapiens),10.7
GGAGGAG [RNAcompete motif RNCMPT00352],binding signal (z-score (mean of top ten 7-mers)),[4],9.21
UAGGG [RNAcompete motif RNCMPT00023],binding signal (z-score (mean of top ten 7-mers)),HNRNPA1L2 (Homo sapiens),7.23
UAGGGA [RNAcompete motif RNCMPT00024],binding signal (z-score (mean of top ten 7-mers)),HNRNPA2B1 (Homo sapiens),8.86
UUUUNCC [RNAcompete motif RNCMPT00396],binding signal (z-score (mean of top ten 7-mers)),[5],9.57
UUUUUGU [RNAcompete motif RNCMPT00399],binding signal (z-score (mean of top ten 7-mers)),[6],8.63
UUUUUU [RNAcompete motif RNCMPT00345],binding signal (z-score (mean of top ten 7-mers)),[7],9.71
